Data published in IntAct's records for PubMed 23085988.

B1: Sorting nexin-8 (Homo sapiens), Q9Y5X2 (parent)
chain: MTGRAMDPLPAAAVGAAAEAEADEEADPPASDLPTPQAIEPQAIVQQVPAPSRMQMPQGNPLLLSHTLQELLARDTVQVELIPEKKGLFLKHVEYEVSSQRFKSSVYRRYNDFVVFQEMLLHKFPYRMVPALPPKRMLGADREFIEARRRALKRFVNLVARHPLFSEDVVLKLFLSFSGSDVQNKLKESAQCVGDEFLNCKLATRAKDFLPADIQAQFAISRELIRNIYNSFHKLRDRAERIASRAIDNAADLLIFGKELSAIGSDTTPLPSWAALNSSTWGSLKQALKGLSVEFALLADKAAQQGKQEENDVVEKLNLFLDLLQSYKDLCERHEKGVLHKHQRALHKYSLMKRQMMSATAQNREPESVEQLESRIVEQENAIQTMELRNYFSLYCLHQETQLIHVYLPLTSHILRAFVNSQIQGHKEMSKVWNDLRPKLSCLFAGPHSTLTPPCSPPEDGLCPH

Variants of: B1
Details: with snx1_human SNX1, Q13596
Sequence of snx1_human SNX1, Q13596 (Q13596 whole entry): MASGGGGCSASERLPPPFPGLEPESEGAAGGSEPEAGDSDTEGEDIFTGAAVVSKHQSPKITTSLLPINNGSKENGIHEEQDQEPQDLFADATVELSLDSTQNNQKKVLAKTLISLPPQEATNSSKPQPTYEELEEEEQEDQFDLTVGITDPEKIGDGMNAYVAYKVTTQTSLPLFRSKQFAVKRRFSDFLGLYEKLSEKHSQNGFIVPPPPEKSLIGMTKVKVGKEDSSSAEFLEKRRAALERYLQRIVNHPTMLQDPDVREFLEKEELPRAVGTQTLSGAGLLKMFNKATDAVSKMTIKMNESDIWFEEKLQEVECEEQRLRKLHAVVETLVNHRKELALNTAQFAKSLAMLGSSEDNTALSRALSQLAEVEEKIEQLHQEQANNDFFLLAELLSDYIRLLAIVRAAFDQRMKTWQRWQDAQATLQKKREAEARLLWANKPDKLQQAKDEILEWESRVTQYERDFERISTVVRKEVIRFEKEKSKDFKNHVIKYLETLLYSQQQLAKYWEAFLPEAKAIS

effect of a mutation on the interaction | Variant
increasing interaction | E310I
